The values that follow come from publication PMC10812501, “Repurposing Glutathione Transferases: Directed Evolution Combined with Chemical Modification for the Creation of a Semisynthetic Enzyme with High Hydroperoxidase Activity” (Antioxidants, 2023).

Substrate in series [1]: CC(C)(OO)c1ccccc1
Description: steady-state kinetics, coupled glutathione reductase/NADPH hydroperoxidase assay. The format is biochemical, Glycine max. To be noted: GSH 1.0 mM fixed, sodium phosphate 50 mM pH 7.0, 1 mM EDTA. The text has this:
steady-state kinetics, coupled glutathione reductase/NADPH hydroperoxidase assay on GmGSTU4-4

Substrate in series [2]: CC(C)(OO)c1ccccc1
Described as above. It counts as biochemical, Glycine max. As to conditions: Sh14 shuffled variant, GSH 1.0 mM fixed, sodium phosphate 50 mM pH 7.0, 1 mM EDTA.

Residue numbers refer to the chain shown, from its start. Names may count otherwise.

B1: GmGSTU4-4 (Glycine max) (protein)
chain: MSDEVVLLDFWPSPFGMRVRIALAEKGIKYEYKEEDLRNKSPLLLQMNPVHKKIPVLIHNGKPICESLIAVQYIEEVWNDRNPLLPSDPYQRAQTRFWADYVDKKIYDLGRKIWTSKGEEKEAAKKEFIEALKLLEEQLGDKTYFGGDNLGFVDIALVPFYTWFKAYETFGTLNIESECPKFIAWAKRCLQKESVAKSLPDQQKVYEFIMDLRKKLGIE
notes: dimer; Sh14 = shuffled variant differing by four point changes (R38Q/Q46K/W114C/I183V)
The Km is the concentration of substrate that gives half-maximal velocity. For orientation: kcat means the number of substrate molecules converted per active site and unit of time at saturation. For B1, in series [1], the Km stood at 454.3 ± 83.6 µM and the kcat worked out at 0.178 ± 0.0167 s⁻¹.

B2: GmGSTU4-4 (Glycine max; I183V/Q46K/R38Q/W114C) (protein)
chain: B1 chain with R38Q, Q46K, W114C, I183V
notes: as for B1
For the protein B2, in series [2], the Km amounted to 255.8 ± 46.4 µM and the kcat was determined as 0.593 ± 0.0617 s⁻¹.
